In paper PMC5957534:

Assays:
Experiment in all cases: DNA electrochemistry
[1] = biological target: T1, AfXPB (Archaeoglobus fulgidus, UniProt O29889 1-452)
T1 sequence: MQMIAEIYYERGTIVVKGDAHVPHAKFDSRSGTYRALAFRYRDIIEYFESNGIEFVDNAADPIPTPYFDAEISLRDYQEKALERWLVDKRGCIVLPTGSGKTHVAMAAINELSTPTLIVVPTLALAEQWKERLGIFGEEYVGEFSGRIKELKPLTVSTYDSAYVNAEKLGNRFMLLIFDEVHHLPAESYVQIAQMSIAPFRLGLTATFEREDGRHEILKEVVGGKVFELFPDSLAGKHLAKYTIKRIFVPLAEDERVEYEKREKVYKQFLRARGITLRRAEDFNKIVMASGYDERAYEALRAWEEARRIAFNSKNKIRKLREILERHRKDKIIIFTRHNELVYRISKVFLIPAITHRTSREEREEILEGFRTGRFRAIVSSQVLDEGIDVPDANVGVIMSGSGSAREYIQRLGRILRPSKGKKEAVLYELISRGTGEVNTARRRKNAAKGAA

[2] = biological target: T2, StXPB1 (Sulfolobus tokodaii, UniProt Q971U1 1-543)
T2 sequence: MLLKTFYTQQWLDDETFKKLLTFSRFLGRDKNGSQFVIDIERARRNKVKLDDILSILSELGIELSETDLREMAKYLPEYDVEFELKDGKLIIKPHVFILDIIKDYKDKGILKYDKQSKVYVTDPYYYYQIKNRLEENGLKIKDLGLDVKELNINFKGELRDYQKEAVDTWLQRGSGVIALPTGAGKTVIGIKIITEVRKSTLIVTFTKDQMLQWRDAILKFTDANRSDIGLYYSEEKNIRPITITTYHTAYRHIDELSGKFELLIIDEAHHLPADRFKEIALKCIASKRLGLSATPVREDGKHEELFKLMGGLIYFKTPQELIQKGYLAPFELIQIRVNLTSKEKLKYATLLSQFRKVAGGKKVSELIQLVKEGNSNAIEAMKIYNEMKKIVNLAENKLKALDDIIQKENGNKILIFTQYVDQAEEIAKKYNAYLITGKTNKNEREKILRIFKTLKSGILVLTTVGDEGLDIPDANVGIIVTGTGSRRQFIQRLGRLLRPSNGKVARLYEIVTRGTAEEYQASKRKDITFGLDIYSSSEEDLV

[3] = biological target: T3, StXPB2 (Sulfolobus tokodaii, UniProt Q970I2 1-439)
T3 sequence: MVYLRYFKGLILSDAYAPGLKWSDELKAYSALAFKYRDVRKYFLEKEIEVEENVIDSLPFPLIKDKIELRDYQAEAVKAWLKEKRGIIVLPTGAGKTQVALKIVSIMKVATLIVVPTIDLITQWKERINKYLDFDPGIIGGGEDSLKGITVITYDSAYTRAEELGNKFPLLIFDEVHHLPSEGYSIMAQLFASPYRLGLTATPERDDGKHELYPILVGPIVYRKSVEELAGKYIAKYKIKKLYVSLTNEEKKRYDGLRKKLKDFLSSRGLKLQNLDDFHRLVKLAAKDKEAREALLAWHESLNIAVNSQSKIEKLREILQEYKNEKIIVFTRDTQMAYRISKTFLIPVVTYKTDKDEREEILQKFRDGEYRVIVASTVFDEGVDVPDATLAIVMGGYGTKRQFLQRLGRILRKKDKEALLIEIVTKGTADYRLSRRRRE

B1: 17mer well-matched duplex (WM) (dsDNA)
DNA 1: GAGATATAAAGCACGCA
DNA 2: TGCGTGCTTTATATCTC
modifications: strand 1 5' C6 thiol on gold electrode; strand 2 5'-terminal T is Nile Blue-modified (5-acrylate dU)
[1]
  Kd: 22 ± 8 nM
[2]
  Kd: 8 ± 2 nM
[3]
  Kd: 50 ± 10 nM
